Laboratory results reported in IntAct's records for PubMed 16628219.

B1: Ras GTPase-activating-like protein IQGAP1 (Mus musculus), Q9JKF1 (parent)
chain: MSAAEEVDGLGVVRPHYGSVLDNERLTAEEMDERRRQNVAYEYLCHLEEAKRWMEACLGEDLPPTTELEEGLRNGVYLAKLGNFFSPKVVSLKKIYDREQTRYKATGLHFRHTDNVIQWLNAMDEIGLPKIFYPETTDIYDRKNMPRCIYCIHALSLYLFKLGLAPQIQDLYGKVDFTEEEINNMKIELEKYGIQMPAFSKIGGILANELSVDEAALHAAVIAINEAIDRRVAADTFTALKNPNAMLVNLEEGLAPTYQDVLYQAKQDKMTNAKNRTENSDRERDVYEELLTQAEIQGNVNKVNTSSALANISLALEQGCAVTLLKALQSLALGLRGLQTQNSDWYMKQLQSDLQQKRQSGQTDPLQKEEVQAGVDAANSAAQQYQRRLAAVAAINAAIQKGIAEKTVLELMNPEAQLPQVYPFAADLYQKELATLQQQSPEHSLTHPELTVAVEMLSSVALINRALESGDMTTVWKQLSSSVTGLTNIEEENCQRYLDELMKLKAQAHAENNAFITWNDIQACVDHVNLVVHEEHERILAIGLINEALDEGDAQKTLQALQIPAAKLEGVLAEVAQHYQDTLIRAKREKAQETQDESAVLWLDEIQGGIWQSNKDTQEAQRFALGISAINEAVDSGDVGRTLSALRSPDVGLYGVIPECGETYQSDLAEAKKKRLAAGDNNSKWVKHWVKGGYHYYHNLETQAGGWAEPPDFVQNSVQLSREEIQSSISGVTAAYNREQLWLANEGLITKLQACCRGYLVRQEFRSRMNFLKKQIPAITCIQSQWRGYKQKKAYQDRLAYLHSHKDEVVKIQSLARMHQARKRYRDRLQYFRDHINDIIKIQAFIRANKARDDYKTLINAEDPPMIVVRKFVHLLDQSDQDFQEELDLMKMREEVITLIRSNQQLENDLNLMDIKIGLLVKNKITLQDVVSHSKKLTKKNKEQLSDMMMINKQKGGLKALSKEKREKLEAYQHLFYLLQTNPTYLAKLIFQMPQNKSTKFMDSVIFTLYNYASNQREEYLLLRLFQTALQEEIKSKVDQIQEIVTGNPTVIKMVVSFNRGARGQNALRQILAPVVKEIMDDKSLNIKTDPVDIYKSWVNQMESQTGEASKLPYDVTPEQALSHEEVKTRLDNSIRNMRAVTDKFLSAIVSSVDKIPYGMRFIAKVLKDSLHEKFPDAGEDELLKIIGNLLYYRYMNPAIVAPDAFDIIDLSAGGQLTTDQRRNLGSIAKMLQHAASNKMFLGDNAHLSIINEYLSQSYQKFRRFFQVACDVPELQDKFNVDEYSDLVTLTKPVIYISIGEIINTHTLLLDHQDAIAPEHNDPIHELLDDLGEVPTIESLIGESCGNSNDPNKEALAKTEVSLTLTNKFDVPGDENAEMDARTILLNTKRLIVDVIRFQPGETLTEILETPATNEQEAEHQRAMQRRAIRDAKTPDKMKKSKPMKEDNNLSLQEKKEKIQTGLKKLTELGTVDPKNRYQELINDIAKDIRNQRRYRQRRKAELVKLQQTYSALNSKATFYGEQVDYYKSYIKTCLDNLASKGKVSKKPREMKGKKSKKISLKYTAARLHEKGVLLEIEDLQANQFKNVIFEIGPTEEVGDFEVKAKFMGVQMETFMLHYQDLLQLQYEGVAVMKLFDRAKVNVNLLIFLLNKKFYGK
B2: Gag polyprotein (Moloney murine leukemia virus (isolate Shinnick) (MoMLV)), P03332 (parent)
chain: MGQTVTTPLSLTLGHWKDVERIAHNQSVDVKKRRWVTFCSAEWPTFNVGWPRDGTFNRDLITQVKIKVFSPGPHGHPDQVPYIVTWEALAFDPPPWVKPFVHPKPPPPLPPSAPSLPLEPPRSTPPRSSLYPALTPSLGAKPKPQVLSDSGGPLIDLLTEDPPPYRDPRPPPSDRDGNGGEATPAGEAPDPSPMASRLRGRREPPVADSTTSQAFPLRAGGNGQLQYWPFSSSDLYNWKNNNPSFSEDPGKLTALIESVLITHQPTWDDCQQLLGTLLTGEEKQRVLLEARKAVRGDDGRPTQLPNEVDAAFPLERPDWDYTTQAGRNHLVHYRQLLLAGLQNAGRSPTNLAKVKGITQGPNESPSAFLERLKEAYRRYTPYDPEDPGQETNVSMSFIWQSAPDIGRKLERLEDLKNKTLGDLVREAEKIFNKRETPEEREERIRRETEEKEERRRTEDEQKEKERDRRRHREMSKLLATVVSGQKQDRQGGERRRSQLDRDQCAYCKEKGHWAKDCPKKPRGPRGPRPQTSLLTLDD
B3: Gag polyprotein (Moloney murine leukemia virus (isolate Shinnick) (MoMLV)), P03332 (parent)
chain: B2 chain
partner: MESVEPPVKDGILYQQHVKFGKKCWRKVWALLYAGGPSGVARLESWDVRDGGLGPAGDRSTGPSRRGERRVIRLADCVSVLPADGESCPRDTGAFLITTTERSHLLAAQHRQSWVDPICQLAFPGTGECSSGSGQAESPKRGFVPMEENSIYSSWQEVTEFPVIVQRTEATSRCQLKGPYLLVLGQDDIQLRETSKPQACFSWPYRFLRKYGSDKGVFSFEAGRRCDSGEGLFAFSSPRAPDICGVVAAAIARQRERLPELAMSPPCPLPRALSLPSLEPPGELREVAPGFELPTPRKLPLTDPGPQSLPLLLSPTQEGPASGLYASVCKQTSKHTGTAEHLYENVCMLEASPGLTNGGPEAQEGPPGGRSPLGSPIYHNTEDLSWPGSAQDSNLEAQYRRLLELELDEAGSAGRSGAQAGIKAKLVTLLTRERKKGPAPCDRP

Variants of: B1
Details: with gag_mlvms gag

Variant	effect of a mutation on the interaction
N1514A;S1515A;K1516A	disrupting interaction

Variants of: B2
Details: with iqga1_mouse Iqgap1, Q9JKF1

Variant	effect of a mutation on the interaction
L60A;I61A;T62A	disrupting interaction

Variants of: B2
Details: with iqga1_mouse Iqgap1, Q9JKF1
Remark: another data set of the same source

Variant	effect of a mutation on the interaction
Q63A;V64A;K65A	disrupting interaction

Variants of: B3
Details: with dok3_mouse Dok3, Q9QZK7

Variant	effect of a mutation on the interaction
L89A;F91A;D92A	disrupting interaction

Variants of: B3
Details: with dok3_mouse Dok3, Q9QZK7
Remark: another data set of the same source

Variant	effect of a mutation on the interaction
G72A;P73A;H74A	disrupting interaction

Variants of: B3
Details: with dok3_mouse Dok3, Q9QZK7
Remark: another data set of the same source

Variant	effect of a mutation on the interaction
F69A;S70A;P71A	disrupting interaction
